test: soluble on expression in E. coli; label from the status in PepcDB or PDB records

Soluble on expression in E. coli, soluble:
MASGQFVNKLQEEVICPICLDILQKPVTIDCGHNFCLKCITQIGETSCGFFKCPLCKTSVRKNAIR
MRILYFDCFAGASGDMILGALLDLGIDVGIFKRELAGLNLDGFDIAVEKKVINSIAVTDVNVIVKEECNHHTGHHHHCERNLADIEKIIDESSLKDNVKRLSKKIFSEIARAEAKVHNKSIEDVHFHEVGAIDSIVDIVGTAICLDLLKVDKIYSSPMHDGTGFIECQHGKLPVPVPAVLEMLKESNIPYITEDVNTELLTPTGLGIIKCVASKFGPMPPMTIEKVGYGAGKRQTGRFNALRCILGNAKEKEKIDDEICMLETNIDDMNPEILGYVMNRLFENGALDVFYTPVYMKKNRPGVLLTVLTDKEHEEKLVDIILTETTTLGIRKTTAQRYVLEREIKHVNTEFGKIRVKESSFGDYKKYSPEFEDCKKVAQELKIPLSKVYDAVNKAILVFEERNENALQ
MGEPKDSLALFLCHESESSLNEDDDETIERSDKQEPHFTTTIDDEDYVADLVLKENLRFETLPSKTTSSSDRLIAIDWILTTRTRFGFQHQTAYIAISYFDLFLHKRFIGLQKDETWAMRLLSVACLSLAAKMEERIVPGLSQYPQDHDFVFKPDVIRKTELLILSTLDWKMNLITPFHYFNYFLAKISQDNHSVSKDLVLLRSSDSLLALTKEISFTEYRQFVVAAVTTLLASSSTSSDIRLTREEIANKFGSISWWTSNENENVYLCYQRTLEIEERKHMTPPPEIAVSREPPASGSGAKRRLSFDDSDQSSPPAKRMRRL
SGSEPTKVMVAVNASTIKDYPNPSISCKRAFEWTLEKIVRSNTSDFKILLLHVQVVDEDGFDDVDSIYASPEDFRDMRQSNKAKGLHLLEFFVNKCHEIGVGCEAWIKTGDPKDVICQEVKRVRPDFLVVGSRGLGRFQKVFVGTVSAFCVKHAECPVMTIKRNADETPSDPADD
MSLKSGTLRVWLFQEVNNKPKEKVVDAALADFEKAHADTKVTVEYIPVETRAQRIKAAFNDPKSAPDVVEFGNTDTAGYVKDGGLADISEEFAAWDEAKDADSTARQSVTVDGKVYGAPYFVGVRALYYRTDVFDELGLKAPRTLAELASTAKRVRAAKPDLYGLAVGGAYTYGAMPFIWANGGDIATGKGGSYASAIDSAAAQKGIKAYTSLFGDANCPAAKCAGMTGNDTVTAFASGKAAMAIGGDFSHQAMEAGAVKGKYAVVPLPGVEPGSIAPAFAGGNNIGVLKSTSHRTLAVDLMKRLASKKAQGELFDAMGFLPTFTDVRQQVAAREPFVKPFVDTLAAGTKFVPASPAWATIDSSLVLPTMFQEVVSGKKDVGAAAGDAARKMDDAFGSAGEGHHHHHH
MSLGQTTLACSFRSLTNPYYTAFNKGAQSFAKSVGLPYVPLTTEGSSEKGIADIRALLQKTGGNLVLNVDPNDSADARVIVEACSKAGAYVTTIWNKPKDLHPWDYNPNYVAHLSYDGVAYGEETATQLFKSMGGKGGVVALGGIFSNVPAIERKAGLDAALKKFPGIQLLDFQVADWNSQKAFPIMQAWMTRFNSKIKGVWAANDDMALGAIEALRAEGLAGQIPVTGMDGTQPGLVAIKSGELVASVDWDPFWLGGIGLSMGLQAKEKKIDLATLPKDRRESFCTATFVTKTNVQDVIARAASPKAEWNNLYARVAGPVVYREGHHHHHH

Soluble on expression in E. coli, not soluble:
MGSDKIHHHHHHMTIATDSLKLITTVEQLKYYLIQAMKIEHATIPPYMTALYSIKPGKNLEAFHIIREVAVEEMLHLTLVANVYNAVGGSFASPVLTAPNFIPTYPSYLPTGSTDFKVGLTKFSKKTIETFRKIERSKDVEEGDPLVESRSLQEYLLEVVGCDPTKTFYSIGLFYAEIIRGLNALYKEKGPDLFCGDPRRQITPEYYYNGGGDIIPVTDLRSAMRALKVIQEQGEGSRSGTIYDAERELAHDYRFQQILLEKYYVIDKDDPTKSDQPNEPTGKSFNVDWNEVYPIKDNAKLSDYPEGSEVRTAALAFHSAYSEFLAKIEYAFDGHPEQLVPAVGGMFRLKEQANSLMRNPIPGNPGVNAAPIFKLDKR
MSGSMLQLIDLCKGYVDGDEFHPVLQGAELTLNQGDQLALMGESGSGKSTLLNLIAGLDSADSGEIWFPGFPMHHTSEHHRTAFRRDNIGQIFQQYNLLPTLNIADNIRFCRQLKGLPEDAGLWRQILSALDLMPLLGRYPEEVSGGQQQRAAIARALYMEPKILLADEPTGSLDERNAEAVMRLLTTLTRQLNCALLLVTHSEKVAQHMDGCIRLQGGQLHVMARS
NFLDFEKPIVELETKIQALRDVSRHSTSASVDLDKELEQLEKKSLELKKKIFSDLGAWQVAQLARHPQRPYTLDYLKHIFTEFDELAGDRAYADDKAIVGGIARLEGRSVMVIGHQKGRETREKVKRNFGMPKPEGYRKALRLMEMAERFNM
MGSDKIHHHHHHMKHSDYSLIPTFVAIVEEKSYTKAAKRLGISQSAVSQGVTRLQAVFKDTLFIRGSRGVEPTQFSLDIYPTLASSVENIAFMMPEYKKFSAVKCEKQFVISSLSVFGFTILPPLSALMSQHAPLASVKIEPLNNHDFTNMLRSQHFDLVIDAHSNQYPQLRSKVIMEDTLCVMCRIDHPRLSGDSISIDEFLAEKHVTHSQLDQKGGYLSGKGLKEDEILNQRKIAWQAASIMEMLPVIECCDYIALLPQRLVDKYRHIYQLKQLHSNFLLDPIKVAMYWHSSRTNDPSHKWLREQIVKVTQQFNKL
MLISLIVPIYNVEGFLPRCLDSIIKQEYQNLEIVLVNDGSTDQSGLICDQYAEKDERFIVFHKENGGVSSARNVGLNKANGNYIGFVDPDDWIEPNMINKLYELIIQHKADIAMCGYVKEDINGLLISRPVELSTKILNKEDTLNSILNPNDFRGFLCNKLFSVDLFRKKNLYLDEDIHFCEDLLFCCQAILESKQIVYDSTPYYHYIIHNNNASKSNFSFKKLTALNSLDNIINLLNDQKGIELEQYKNYYMHLNISLLMNGIHEDKIRRQDKERLKKNLYKFKINDLTSKFVKFSCVLARLNLNLYYFIWKNAKPSN
IPLPEQPGGSSDFIAFTDKAKLTFTTSRPMKMVYTLDETEPTLTSTPYTVPLEFAQTGLLKIRTVTAGGKMSPVRRIRVEKQPFNMSMEVPAPKPGLTIRTAYGDLYDVPDLQQVASWEVGTVSSLEEIMHGKEKITSPEVLERRVVEATGYVLIPEDGVYEFSTENNEFWIDNVKLIDNVGEVKKFSRRNSSRALQKGYHPIKTIWVGAIQGGWPTYWNYSRVMIRLKGEEKFKPISSDMLFQ
MIDPVCGMKVDKNAKFKSTYNGKEYYFCSEHCKVEFDRNPIKYTR
GERLTIEDGLYLYETSDLLGVAQLANKVNSEKNGDHVYFIENMYINPTNVCEANCSFCGFKRKPGQEGAYTMDSETLLRYVEERWNDNIREFHIVGGHNTDVPFDYYLDTIRTLKKNFPQVTVKAYTGAEIEFFSRLAGISMKEVLEELIKAGLDTLPGGGAEILTERYRAKMSPDKASTDQWLEAHEIAHGLGLKTHATMLYGSIESNEERLIHMDRVRQLQDKTNGYMVFIPLAMQPRSVKAGLKRRTSAFDDMRTIAISRLMLDNIDHIKAYWINIGVQLTQMALTFGSDDIHGTLIEERISHSVGALTSQGITRDELIHLIKSANKTPVER
MKKRYRAINDYYRELFGEKIFKLPIDAGFDCPNRDGTVARGGCTFCTVSGSGDAIVAPEAPIREQFYKEIDFMHRKWPEVNKYLVYFQNFTNTHAKLEIIKERYEQAINEPGVIGINIGTRPDCLPDETIYYLAELSERMHVTLELGLQTTYEATSALINRAHSYDLYKKTVKRIRELAPKVEIVSHLINGLPGETHDMMVENVRRCVTDNDIQGIKLHLLHLMTNTRMQRDYHEGRLRLLSQEDYISIICDQLEIIPKHIVIHRITGDAPRHMLIGPMWSLNKW
VAIDYTRRPSSPAAPQGGVSLSKVTLSKAAPSVSLTKSGERQGAMRVNLNWSTGATPQPKKTGFFAKLAAAAGGNNGIDLDLGCLYELADGSKGVVQALGNSFGSLQAPPFIKLDADDRTGTVTGGENLHINLDRPEMFKRILIFAMIYDGAPNWAAVDGVVTLYPTSGPEVEVRLDTSNSSARICAIAMLQNTGQGITVTREVKYIEGSQADLDKTYSWGMKWAAGRK
